Measured values taken from the supplement of paper PMC10266784.

B1: library; numbered along this chain (parent)
chain: MAAAAAAAAEQQSSNGPVKKSMREKAVERRSVNKEHNSNFKAGYIPIDEDRLHKTGLRGRKGNLAICVIILLFILAVINLIITLVIWAVIRIGPNGCDSMEFHESGLLRFKQVSDMGVIHPLYKSTVGGRRNENLVITGNNQPIVFQQGTTKLSVENNKTSITSDIGMQFFDPRTQNILFSTDYETHEFHLPSGVKSLNVQKASTERITSNATSDLNIKVDGRAIVRGNEGVFIMGKTIEFHMGGNMELKAENSIILNGSVMVSTTRLPSSSSGDQLGSGDWVRYKLCMCADGTLFKVQVTSQNMGCQISDNPCGNTH

Variants of: B1
Assay: SGCB cell-surface expression functional score (HA stain, bin4 vs bin1, normalised to synonymous) (log10 ratio); higher = more cell-surface SGCB (functional)
In short: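 Codon-saturation libraries of HA-tagged, YFP-fused human beta-sarcoglycan were lentivirally transduced at MOI <0.1 into HEK293 cells stably expressing alpha-, gamma- and delta-sarcoglycan. YFP-positive cells were sorted after 72 hours, grown 5–7 days, stained on ice with Alexa Fluor 647 anti-HA, fixed, sorted into four 5% intensity bins and amplicon-sequenced. The functional score is the log ratio of highest-bin to lowest-bin variant frequency, taken as the median over codons and duplicate transductions. Synonymous variants were scaled per section to mean 0, SD 0.5.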

SGCB cell-surface expression functional score (log10) of substitutions, site by site:
I218: A -0.08 | E -1.24 | C -0.48 | F 0.87 | D -1.45
D215: E 0.16 | N 0.41 | Y -0.46 | H -0.39 | R -0.63 | Q -1.03 | G -0.26 | L -1.51 | T -0.88 | K 0 | C -1.31 | A -0.72 | V -0.56 | M -1 | S -0.25 | P -0.55 | I -0.99 | F -1.47
N211: T -0.4 | H -0.34 | G -3.64 | R -0.82 | Q -0.03 | C -1.44 | M 0.07 | E 0.12 | S -0.02 | A -0.33 | W -3.13 | I -0.69 | P -0.12 | D -0.68 | V -0.91 | L -0.58 | F -0.28 | K 0.09 | Y 0
L216: P -1.25 | Y -1.59 | Q -0.15 | C -2.34 | G -1.5 | M 0.99 | N -1.72 | H -2.1 | S -1.57 | D -2.69 | I -0.71 | V -2.64 | W -0.99 | R -1.93 | T -1.02 | F -0.42 | E -1.92 | K -0.59 | A -1.97
S214: K -0.46 | C -0.08 | P -1.11 | I -0.69 | Y -1.74 | F -1.55 | G -0.32 | H -0.9 | T -0.12 | A 0.25 | Q -0.1 | M -0.57 | W -1.07 | R -0.31 | L -1.06 | N -0.1 | V -0.18
A212: L -0.95 | W -0.44 | M 0.16 | G 0.11 | C -0.61 | R -1.47 | S 0.29 | T 0.02 | I 0.23 | P -0.25 | Q 0.72 | Y 0.86 | H -0.76 | K -1.05 | N -0.89 | F -0.4 | V -0.06 | D 0.56 | E 0.91
T209: W -0.85 | Y -0.71 | N -0.52 | I -0.34 | H -0.13 | F -0.85 | P -0.71 | Q -0.66 | M 0.74 | K -1.12 | V 0.51 | R -0.83 | S 0.1 | L -0.72
S210: M -1.94 | P -1.92 | V -1.36 | W -1.35 | T -0.61 | E -1.75 | H -0.47 | A 0.29 | I -0.9 | N -1.62 | D -0.42 | L -1.26 | F -0.9 | K -1.43 | G -0.16 | C -0.17 | R -1.31 | Q -1.03 | Y -2.28
N217: H 0 | E 0.9 | W -1.28 | A 0.9 | L 0.37 | F 1.13 | I 0.1 | K 0.3 | D 0.2 | P -1.08 | Q 0.77 | C -0.04 | M 0.27 | R 0.7 | S 0.54 | Y 0.59 | T 0.16 | V 0.65 | G 0.5
T213: V -1.02 | H -0.04 | Q 0.13 | A -0.44 | P -1.5 | M 0.76 | Y -0.24 | F -0.31 | E 0.86 | S 0.08 | L -0.5 | I 0.5 | R 0.18 | C -0.94 | G 0.65 | N 0.03 | D -0.81 | K 0.23
